In assay [1] the test system is Human Promyelocytic Leukemia NB4 Cells. Briefly: Killing effect of rLZ-8 on NB4 cells (MTT, OD570nm). Format: cell-based. To be noted: As2O3 10 μg ml^−1, 48 h. As to the method: After filtration and degerming, we prepared 8 concentrations using IMDM culture medium which are respectively 0.78 μg·ml^−1, 1.56 μg·ml^−1, 3.125 μg·ml^−1, 6.25 μg·ml^−1, 12.5 μg·ml^−1, 25 μg·ml^−1, 50 μg·ml^−1, 100 μg·ml^−1.
On 96-orifice culture medium plate, the pilot orifice plus NB4 tumor cells 0.1 ml and rLZ-8 0.1 ml, rLZ-8 concentrates from low to high; negative control group plus NB4 tumor cells and culture medium of 0.1 ml respectively; positive drug control group arsenic trioxide As2O3; make six-aperture multipunches for each group. Placing in 37° C., 5% CO2 incubator 48 h, adding MTT15 μl (5 mg ml^−1) prior to the termination of 4 h, after the termination of cell culture by adding 100 μl 0.1 mol L^−1 hydrochloric acid isopropyl alcohol, testing on the enzyme-linked immunosorbent OD570nm values.

Assay [2] has as its system HL-60. Briefly: Annexin V-FITC flow cytometry, apoptosis of HL-60. In kind it is cell-based. Particulars: HL-60, positive drug group, 24 h, Annexin V/PI. As to the method: (§1) FACS Calibur flow cytometry, U.S. Becton-Dickinson.Coompany. NB4, HL-60. rLZ-8 is prepared with IMDM culture medium containing 2% FCS into the preparation of 0.1 μg·ml^−1, 0.5 μg·ml^−1, 2.5 μg·ml^−1, arsenic trioxide (As2O3) 0.5 μg·ml^−1 AnnexinV-FITC kit: combining buffer solution 4×; Propidium iodide solution (PI), 20 μg·ml−1, 0.2 ml; recombinant human Annexin V/FITC, 0.1 ml.
(§2) Establish NB4 normal control group, positive drug group (As2O3 0.5 μg·ml^−1), protein low-dose group (0.1 μg·ml^−1), medium-dose group (0.5 μg·ml^−1), high-dose group, (2.5 μg·ml^−1); establish HL-60 normal control group, protein low-dose group (0.1 μg·ml^−1), medium-dose group (0.5 μg·ml^−1), high-dose group, (2.5 μg·ml^−1).
(§3) Mix NB4 and HL-60 cell into 24-orifice plate respectively, 1 ml/hole supply rLZ-8 in different concentrates, set 3-orifice multipunches for each group. Put them in 37° C., 5% CO2 incubator for 24 h, collect the cells of each concentrate, washes the cells twice with pre-cooled PBS 4° C., with 250 μl binding buffer solution re-suspending cells and regulates the cell density to 1×10^6/ml, taking out 100 μl to 5 ml streaming tube, and add 5 μl Annexin V/FITC and 10 μl 20 μg·ml^−1 PI solution, after mixing put it in room temperature and lucifuged hatching 15 min, add 400 μl PBS by flow cytometry analysis.
In general terms: Flow cytometry measures light scatter and fluorescence of single cells or particles in a stream.

The test system of assay [3] is NB4. As to the kind of experiment: Annexin V-FITC flow cytometry, apoptosis of NB4. To be noted: NB4, As2O3 0.5 μg·ml^−1, 24 h, Annexin V/PI. In kind it is cell-based. As to the method: as §1, §2, §3
The test system of assay [4] is Human Chronic Myelogenous Leukemia K562 Cells. As to the kind of experiment: Lethal effect of rLZ-8 on K562 cells (MTT, OD570nm). Particulars: As2O3 10 μg ml^−1, 48 h. Format: cell-based. As to the method:
After sterilization of rLZ-8, we prepared 6 concentrations using IMDM culture medium, which are respectively 3.125 μg·ml^−1, 6.25 μb·ml^−1, 12.5 μg·ml^−, 25 μg·ml^−1, 50 μg·ml^−1, 100 μg·ml^−1.
On 96-orifice culture plate, the pilot aperture plus K562 tumor cells 0.1 ml and rLZ-8 0.1 ml, rLZ-8 concentrations from low to high; negative control group plus K562 tumor cells and culture medium of the 0.1 ml respectively; positive drug control group arsenic trioxide As2O3; make six-aperture multipunches for each group. Placing in 37° C., 5% CO2 incubator 48 h, adding MTT15 μl (5 mg ml^−1) prior to the termination of 4 h, after the termination of cell culture by adding 100 μl 0.1 mol L^−1 hydrochloric acid isopropyl alcohol, testing OD values570nm on the enzyme immunosorbent detector.

Assay [5] concerns WBC. As to the kind of experiment: Cyclophosphamide low-leucocyte mice model, WBC. On the set-up: unit not given here. Particulars: Genlei Scimax 3.2 μg·kg−1. Format: in vivo. As to the method: rLZ-8 preparation of sterile saline. Divide them into 5 μg·kg^−1, 2.5 μg√kg^−1, 1.25 μg·kg^−1, 0.62 μg·kg^−1 dose groups.
Genlei™ Scimax™ [Recombinant human granulocyte colony-stimulating factor injection (rhG-CSF)], production lot: 20060403; 75 μg/vial is prepared with sterile normal saline into the preparation of 3.2 μg·kg^−1, 0.2 ml/vial.
Cyclophosphamide (CP) for injection (the production lot number 050216; 200 mg/vial) is prepared with sterile normal saline into the preparation of 12.5 mg·kg^−1, 0.2 ml/vial.
Normal control group, several protein dose groups, positive control group (Genlei™ Scimax™).
(§4) Excluding the normal control group (given same normal saline), each group of mice were given tail vein injection of cyclophosphamide, 1.25 μg·kg^−1, 0.2 ml/vial, for 3 consecutive days. On 3rd day, rat tail venous blood sampling, sent to Jilin University First Hospital laboratory, cell analyze the number of WBC. After successful modeling, they were given to the above groups respective dose of rLZ-8 and positive drugs (Genlei™ Scimax™) treatment, the normal control group and CP groups were given same normal saline, on the 3rd, 7th and 14th day of the treatment to draw venous blood from mice tail respectively, sent to Jilin University First Hospital testing the numbers of WBC. Compare WBC changes before and after the treatment for analysis of drug efficacy.

For assay [6], the system named is WBC. Briefly: Prevention of radiation leucopenia model of mice, WBC. Format: in vivo. On the set-up: unit not given here. To be noted: Genlei Scimax 3.2 μg. As to the method: rLZ-8 preparation of sterile saline. Divide them into 5 μg·kg^−1, 2.5 μg·kg^−1, 1.25 μg·kg^−1, 0.62 μg·kg^−1 dose groups. 0.2 ml/vial.
Genlei™ Scimax™ [Recombinant human granulocyte colony-stimulating factor injection (rhG-CSF)], production lot: 20060403; 150 μg/vial is prepared with sterile normal saline into the preparation of 3.2 μg·kg^−1, 0.2 ml/vial.
The mice were irradiated by 7.5 Gy γ-ray (180 mV, 15 mA) and then divided into seven groups (n=10): (A) negative control; (B) 5 μg·kg−1 dose; (C) 2.5 μg·kg−1 dose; (D) 1.25 μg·kg−1 dose; (E) 0.62 μg·kg−1 dose; (F) positive control (Genlei™ Scimax™); (G) model group. Before modeling 5 days, mice in each group were administered with Genlei™ Scimax™ and rLZ-8 for 5 days, on the 5th day, mice were radiated, for 5 days, and on the 7th day, drew blood from tail, tested the number of WBC, weight spleen, calculated index of spleen.

In assay [7] the test system is spleen. Briefly: Colony forming unit-spleen and spleen index in radiation model of mice. Format: in vivo. To be noted: Genlei Scimax 3.2 μg·kg^−1. As to the method: (§5) rLZ-8 preparation of sterile saline. Divide them into 5 ∞g·kg^−1, 2.5 μg·kg^−1, 1.25 μg·kg^−1, 0.62 μg·kg^−1 dose groups. 0.2 ml/vial.
(§6) Genlei™ Scimax™ [Recombinant human granulocyte colony-stimulating factor injection (rhG-CSF)], production lot: 20060403; 150m/vial is prepared with sterile normal saline into the preparation of 3.2 μg·kg^−1, 0.2 ml/vial.
(§7) The mice were irradiated by 7.5 Gy γ-ray (180 mV, 15 mA) and then divided into seven groups (n=10): (A) negative control; (B) 5 μg·kg−1 dose; (C) 2.5 μg·kg−1 dose; (D) 1.25 μg·kg−1 dose; (E) 0.62 μg·kg−1 dose; (F) positive control (Genlei™ Scimax™); (G) model group. Together with modeling, mice in each group were administered with Genlei™ Scimax™ and rLZ-8 for 9 days, drew blood from tail, tested the number of WBC, weight spleen, calculated index of spleen.

The subject of assay [8] is WBC. As to the kind of experiment: Treatment of radiation leucopenia model of mice, WBC. Format: in vivo. On the set-up: unit not given here. Particulars: Genlei Scimax 3.2 μg·kg^−1; 7.5 Gy γ-ray. As to the method: as §5, §6, §7
The subject of assay [9] is WBC. As to the kind of experiment: Cyclophosphamide low-leucocyte rat model, WBC. On the set-up: unit not given here. In kind it is in vivo, rats. Particulars: Genlei Scimax 9.45 μg·kg−1. As to the method: rLZ-8 preparation of sterile saline. Divide them into 20 μg·kg^−1, 10 μg·kg^−1, 5 μg·kg^−1, 2.5 μg·kg^−1, 1.25 μg·kg^−1, 0.625 μg·kg^−1, 0.31 μg·kg^−1 dose groups.
Genlei™ Scimax™ [Recombinant human granulocyte colony-stimulating factor injection (rhG-CSF)], production lot: 20060403; 75 μg/vial is prepared with sterile normal saline into the preparation of 9.45 μg·ml^−1, 0.1 ml/vial.
Cyclophosphamide (CP), the production lot number 050216; 200 mg/vial is prepared with sterile normal saline into the preparation of 20 mg·ml^−1, 0.1 ml/vial, namely, 49 mg·kg^−1.
Normal control group, protein low-dose group, protein medium-dose group, protein high-dose group, positive control group (Genlei™ Scimax™)
as §4, with “rats” for “mice”, “20 mg·ml^−1, 0.1” for “1.25 μg·kg^−1, 0.2”

As for “arsenic trioxide [As2O3, reference compound]”, the “Growth inhibition rate (%)” value in assay [1] was determined as 72%; in [4], 78.2%. Also, the figures for the OD570 nm in [1] and in assay [4] were 0.33 ± 0.01 and 0.22 ± 0.03, respectively. The Apoptosis rate in [2] is 39.7%; in assay [3], 23.4%.

B1: Genlei ™ Scimax ™: Recombinant human granulocyte colony-stimulating factor injection (rhG-CSF) (protein, UniProt P09919 31-207, looked up)
Granulocyte …: TPLGPASSLPQSFLLKCLEQVRKIQGDGAALQEKLVSECATYKLCHPEELVLLGHSLGIPWAPLSSCPSQALQLAGCLSQLHSGLFLYQGLLQALEGISPELGPTLDTLQLDVADFATTIWQQMEELGMAPALQPTQGAMPAFASAFQRRAGGVLVASHLQSFLEVSYRVLRHLAQP
As to B1, in assay [5], the “WBC, 3rdday of medication” value is 5.5 ± 0.12; the “WBC, 7thday of medication” value worked out at 22.7 ± 0.12; the “WBC, 14thday of medication” value is reported as 13.0 ± 0.19. Also, in assay [6] (5th day of administration before radiation), the “WBC, 5th day (rLZ-8)” value is given as 21.8 ± 0.35. Besides, in [6] (after 7.5 Gy γ-ray), the “WBC, 5th day” value is 0.26 ± 0.20 and the “WBC, 7th day” value stood at 0.22 ± 0.12. Besides, in [7], the “colony forming unit-spleen number” value worked out at 6.0 ± 0.11, the growth rate is recorded as 26% and the “index (spleen)” value is recorded as 0.20 ± 0.10. Also, in assay [8], the “WBC, 5th day” value worked out at 0.68 ± 0.35; the “WBC, 7th day” value worked out at 0.58 ± 0.35; the “WBC, 9th day” value stood at 0.80 ± 0.11. In addition, in [9], the “WBC, 3rdday of medication” value is 1.4 ± 0.11; the “WBC, 7thday of medication” value is recorded as 13.1 ± 0.21; the “WBC, 14thday of medication” value came to 10.3 ± 0.14.

(Values after patent US20110009597A1, “RECOMBINANT GANODERMA LUCIDIUM IMMUNOMODULATORY PROTEIN (rLZ-8) AND USES THEREOF” (priority 2008, published 2011).)
